From patent publication US20240270821A1, “GIP/GLP1/GCG TRI-RECEPTOR AGONISTS AND USES THEREOF” (priority 2023, published 2024)
Starred links: 1 amine or outer side, 2 acyl side, 3 side chain; linkers in the order of their positions; H or OH if unused. Non-standard residues stand in square brackets, D forms with d. Groups on a side chain read outwards from the residue. No end group written: not given here. *: point of attachment. C20 diacid = O=C(O)CCCCCCCCCCCCCCCCCCC(=O)*; C18 diacid = O=C(O)CCCCCCCCCCCCCCCCC(=O)*; αMePhe(2-F) = C[C@](N)(Cc1ccccc1F)C(=O)O; γGlu = O=C(O)[C@H](CCC(=O)[*:2])N[*:1]; NMeY = CN[C@@H](Cc1ccc(O)cc1)C(=O)O; αMeF = C[C@](N)(Cc1ccccc1)C(=O)O; αMeL = CC(C)C[C@](C)(N)C(=O)O; Orn = NCCC[C@H](N)C(=O)O; AEEA = NCCOCCOCC(=O)O; Aib = CC(C)(N)C(=O)O

T1: human GIP receptor (human) (UniProt P48546)
T1 sequence (looked up): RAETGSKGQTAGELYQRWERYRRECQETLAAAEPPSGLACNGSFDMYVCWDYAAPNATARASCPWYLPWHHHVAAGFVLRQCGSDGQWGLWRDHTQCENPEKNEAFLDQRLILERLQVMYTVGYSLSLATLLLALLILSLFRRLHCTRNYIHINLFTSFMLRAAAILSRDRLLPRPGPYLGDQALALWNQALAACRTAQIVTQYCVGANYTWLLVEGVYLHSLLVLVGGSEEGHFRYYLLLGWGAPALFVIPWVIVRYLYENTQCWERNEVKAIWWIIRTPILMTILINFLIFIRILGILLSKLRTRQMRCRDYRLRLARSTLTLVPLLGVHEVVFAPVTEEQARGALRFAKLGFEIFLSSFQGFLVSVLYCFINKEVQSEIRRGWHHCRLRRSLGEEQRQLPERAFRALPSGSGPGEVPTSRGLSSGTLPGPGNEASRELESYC


Assays:
Assay in all cases: cell-based or functional assay
[1] = biological target: Pro-Link-tagged Human GLP-1R (human) (UniProt P43220)
Pro-Link-tagged Human GLP-1R (human), sequence (P43220 24-463): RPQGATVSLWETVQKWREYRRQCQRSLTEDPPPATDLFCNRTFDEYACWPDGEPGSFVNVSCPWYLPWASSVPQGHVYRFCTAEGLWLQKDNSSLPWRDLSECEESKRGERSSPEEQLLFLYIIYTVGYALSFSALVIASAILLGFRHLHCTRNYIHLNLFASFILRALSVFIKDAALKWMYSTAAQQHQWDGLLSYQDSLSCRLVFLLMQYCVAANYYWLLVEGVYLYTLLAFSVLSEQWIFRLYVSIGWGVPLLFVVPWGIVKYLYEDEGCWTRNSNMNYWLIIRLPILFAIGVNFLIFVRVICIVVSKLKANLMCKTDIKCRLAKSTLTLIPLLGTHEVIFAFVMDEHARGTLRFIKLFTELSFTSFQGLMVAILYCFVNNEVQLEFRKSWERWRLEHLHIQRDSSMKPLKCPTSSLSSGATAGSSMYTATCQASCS

[2] = biological target: hGLP-1R (Homo sapiens, UniProt P43220)
hGLP-1R, sequence (P43220 24-463): as above

[3] = biological target: T1, human GIP receptor (human)
[4] = biological target: human glucagon receptor (human) (UniProt P47871)
human glucagon receptor (human), sequence (P47871 26-477): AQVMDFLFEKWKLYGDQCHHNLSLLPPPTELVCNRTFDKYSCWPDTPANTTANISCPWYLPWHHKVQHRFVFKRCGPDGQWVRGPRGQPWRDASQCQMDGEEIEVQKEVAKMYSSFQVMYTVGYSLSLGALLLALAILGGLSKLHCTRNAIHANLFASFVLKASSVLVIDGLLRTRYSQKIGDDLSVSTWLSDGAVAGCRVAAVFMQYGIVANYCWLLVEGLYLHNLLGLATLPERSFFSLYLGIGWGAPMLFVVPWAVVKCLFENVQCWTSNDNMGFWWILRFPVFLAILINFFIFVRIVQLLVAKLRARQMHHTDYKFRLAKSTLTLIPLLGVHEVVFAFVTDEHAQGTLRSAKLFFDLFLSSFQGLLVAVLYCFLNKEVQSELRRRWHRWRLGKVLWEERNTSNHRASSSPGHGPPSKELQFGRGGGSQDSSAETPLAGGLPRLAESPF

[5] = biological target: human GLP-1R (SNAP-GLP-1R expressed in HEK293 cells) (human) (UniProt P43220)
human GLP-1R (SNAP-GLP-1R expressed in HEK293 cells) (human), sequence (P43220 24-463): as the sequence (P43220 24-463) above

Binder	% Stimulation Max [1] [%]	hGLP1R β-arrestin Rel EC50 [1] [µM]	Relative cAMP EC50 [2] [nM]	cAMP Rel EC50 (1% HSA) [2] [nM]	Relative cAMP EC50 [3] [nM]	cAMP Rel EC50 (1% HSA) [3] [nM]	Relative cAMP EC50 [4] [nM]	cAMP Rel EC50 (1% HSA) [4] [nM]	cAMP Rel EC50 (in the presence of 1% HSA) [2] [nM]	cAMP Rel EC50 (in the presence of 1% HSA) [3] [nM]	GLP1R Internalization EC50 [5] [nM]	Internalization % TOP [5] [%]	cAMP Rel EC50 (in the presence of 1% HSA) [4] [nM]
Y[Aib]QGT[αMeF]TSDYSILLDKIAAKNFIEYLVEGGPSSGEPPPSEG-NH2 (not fully specified (residue 20)) [Example 307]	70.8	0.00986	0.836	209	0.446	65.3	1.68	1880	–	–	–	–	–
[NMeY][Aib]QGT[αMeF]TSDYSILLDKQAAKAFVQWLIAGGPSSGEPPPSEG-NH2 (not fully specified (residue 20)) [Example 301]	59.1	0.0132	0.641	82.4	0.722	81.8	6.73	1500	–	–	–	–	–
Y[Aib]QGTFTSDYSI[αMeL]LDKK([AEEA-γGlu-C20 diacid])AQRAFIEYLLEGGPSSGEPPPSEG-NH2 [Example 289]	47.5	0.00596	0.449	–	0.382	–	5.02	–	139	105	10.9	86.5	1750
Y[Aib]QGTFTSDYSK[αMeL]LDKK([AEEA-γGlu-C20 diacid])AQQAFVQWLIEGGPSSGEPPPSEG-NH2 [Example 315]	29.7	0.00376	0.508	140	0.398	85.1	4.05	1560	–	–	–	–	–
Y[Aib]QGT[αMePhe(2-F)]TSDYSKLLDKQAQK([AEEA-γGlu-C20 diacid])QFIEYLIEGGPSSGEPPPSEG-NH2 [Example 309]	47.2	0.00672	0.808	251	0.32	424	9.28	3910	–	–	–	–	–
YXQGTFTSDFSIXLDKKAQXAFIEYLLEGGPSSGEPPPSEG (non-natural residues; acylated Lys; C-terminal amide; synthetic construct; SITE 2: note = 2-Aminoisobutyric Acid; SITE 13: note = alpha-methyl-leucine; SITE 17: note = Lysine is chemically modified through conjugation of the epsilon-amino group of the Lysine side chain with (2-[2-(2-Amino-ethoxy)-ethoxy]-acetyl)-(gamma-Glu)-CO-(CH2) 18-CO2H; SITE 20: n) [Example 288]	18	0.0163	1.89	–	0.234	–	5.17	–	616	59.1	30.3	72.4	3580
Y[Aib]QGT[αMePhe(2-F)]TSDYSKLLDKIAQKAFIEYLIEGGPSSGEPPPSEG-NH2 (not fully specified (residue 20)) [Example 304]	47.8	0.00921	0.551	172	0.127	48	2.31	1720	–	–	–	–	–
Y[Aib]QGT[αMePhe(2-F)]TSDYSKILDKIAQK([AEEA-γGlu-C20 diacid])AFIEYLLEGGPSSGEPPPSEG-NH2 [Example 311]	39.6	0.0192	3.36	1080	0.113	26.1	2.08	2500	–	–	–	–	–
Y[Aib]QGT[αMePhe(2-F)]TSDYSILLDKIAAK([AEEA-γGlu-C20 diacid])AFIEYLIEGGPSSGEPPPSEG-NH2 [Example 296]	55.2	0.014	0.536	–	0.0806	–	1.72	–	171	21.8	19.2	87.2	517
Y[Aib]QGTFTSDYSI[αMeL]LDKQAAKQFVEWLLA[Aib]GPSSGEPPPSEG (not fully specified (residue 20)) [Example 329]	74.5	0.00611	0.926	204	0.207	42.6	3.47	842	–	–	34	91.1	–
Y[Aib]QGTFTSDYSI[αMeL]LDKIAAK([AEEA-AEEA-γGlu-C20 diacid])[Orn]FVQYLIAGGPSSGEPPPSEG-NH2 [Example 308]	41.4	0.0169	3.15	477	–	237	14.2	4950	–	–	–	–	–
[NMeY][Aib]QGT[αMeF]TSDYSILLDKIAAKAFVQWLIAGGPSSGEPPPSEG-NH2 (not fully specified (residue 20)) [Example 300]	40.3	0.0157	1.05	98	0.0975	12.9	6.54	976	–	–	–	–	–
Y[Aib]QGTFTSDYSI[αMeL]LDKQAAKAFVEWLLAGGPSSGEPPPSEG-NH2 (not fully specified (residue 20)) [Example 305]	58.3	0.0233	1.48	415	1	92.4	6.73	1500	–	–	–	–	–
[NMeY][Aib]QGT[αMeF]TSDYSILLDKQAAKAFVQWLIEGGPSSGEPPPSEG-NH2 (not fully specified (residue 20)) [Example 302]	56.6	0.0112	0.621	73.6	0.7	91.8	4.47	1370	–	–	–	–	–
Y[Aib]QGT[αMePhe(2-F)]TSDYSKLLDKIAQK([AEEA-γGlu-C20 diacid])AFIEYLLEGGPSSGEPPPSEG-NH2 [Example 295]	44.1	0.0164	0.831	–	0.126	–	2.15	–	232	61.1	31.4	88.4	605
